In publication PMC7828216, “Identification and Functional Analysis of Apoptotic Protease Activating Factor-1 (Apaf-1) from Spodoptera litura” (Insects, 2021):

B1: Sl-Apaf-1-CARD (caspase recruitment domain of Spodoptera litura apoptotic protease activating factor-1, 1-88aa) (domain or fragment, UniProt A0A7T6ZKB7 1-88, looked up)
chain: MDKHKRLLLQKYQQDIIDDLDVAYVYDELFAKHVISAEEVDRMFSLTTRIDQTRFLLDSLIRNGTNGTYQVFVDSLQKDYGWLWEKLA
notes: caspase recruitment domain, residues 1-88; Cloned with Nde I and Xho I in pET-22b; also called Sl-Af88; Sl-Apaf-1-CARD domain protein fragment
B2: Sl-caspase5-CARD (caspase recruitment domain of Spodoptera litura caspase-5, 1-132aa) (domain or fragment, UniProt R4I520 1-132, looked up)
chain: MQREHRDAIQSNFSSLVERTDLDSVVTALYEKGVFSEQMIEPYRNNSELERDRKRRLYMDVTRRGPHAFAHLVDTLGELGYWDLARDLDPDSPFSFSSQQRSHPIPQPKPADNDNFRSLSTSNRPRAEPNRI
notes: Sl-caspase-5 of Spodoptera litura (a homologue of mammalian caspase-9; Dronc), GenBank JQ768051; caspase recruitment domain, residues 1-132; Cloned with Nde I and Xho I in pET-22b; also called caspase-5-CARD domain

How the values were obtained:
[1] = target: B2; test: ITC; Sl-Apaf-1-CARD at 50 µM, Sl-caspase-5-CARD at 450 µM; 10 mM HEPES, 100 mM NaCl, 2 mM DTT, pH 7.4; 20 °C; 20 injections; VP-ITC; which protein was in the cell is not said; conditions: both partners purified
[2] = target: B1; test: as above; conditions: both partners purified

Ka [1]	dH [2]	stoichiometry N [2]	Binder
1.28e+06 M⁻¹	–	–	B1
–	-15.5 kcal/mol	1	B2
